Laboratory results: the supplement of paper PMC7877785
± gives the uncertainty stated by the source.

Test: self-splicing fitness, log relative to wild type (ln ratio); higher = more splicing; Tetrahymena group I intron in knt gene, E. coli kanamycin selection, DiMSum; sequences stand for … in CUCUCU…GGAGGGAAAAGUUAUCAGGCAUGCACCUGGUAGCUAGUCUUUAAACCAAUAGAUUGCAUCGGUUUAAAAGGCAAGACCGUCAAAUUGCGGGAAAGGGGUCAACAGCCGUUCAGUACCAAGUCUCAGGGGAAACUUUGAGAUGGCCUUGCAAAGGGUAUGGUAAUAAGCUGACGGACAUGGUCCUAACCACGCAGCCAAGUCCUAAGUCAACAGAUCUUCUGUUGAUAUGGAUGCAGUUCACAGACUAAAUGUCGGUCGGGGAAGAUGUAUUCUUCUCAUAAGAUAUAGUCGGACCUCUCCUUAAUGGGAGCUAGCGGAUGAAGUGAUGCAACACUGGAGCCGCUGGGAACUAAUUUGUAUGCGAAAGUAUAUUGAUUAGUUUUGGAGUACUCGUGGUCG
Method in brief: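 A randomised library covering all eight P1ex-region intron nucleotides was built with the intron in the knt kanamycin-resistance gene on pET-22b(+) and held in E. coli BL21(DE3). Cells were grown overnight at 37°C or 30°C on LB agar, with or without 25 μg/mL kanamycin, plus 100 μg/mL carbenicillin, 50 μM IPTG and 0.2% rhamnose, and pooled colonies were amplicon-sequenced on an Illumina HiSeq 2500. DiMSum fitness is the error-weighted combination of wild-type-normalised replicate fold changes, kanamycin versus none.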

| Sequence | self-splicing fitness (ln) (30 °C) | self-splicing fitness (ln) (37 °C) |
| --- | --- | --- |
| CGAGAGCAAUAUUACGGUAC | -3.63 ± 0.47 | -0.529 ± 0.28 |
| AUUCAGCAAUAUUACGGUGA | -0.556 ± 0.097 | -0.526 ± 0.086 |
| UAACAGCAAUAUUACGUAUG | -1.52 ± 0.058 | -0.164 ± 0.075 |
| GUCCAGCAAUAUUACGAACA | -1.83 ± 0.15 | -0.801 ± 0.12 |
| UUCCAGCAAUAUUACGCGUC | -1.59 ± 0.16 | -0.827 ± 0.18 |
| GCGCAGCAAUAUUACGUCUG | -2.4 ± 0.14 | -2.99 ± 0.3 |
| AUCAAGCAAUAUUACGGGUC | -3.33 ± 0.29 | -2.19 ± 0.27 |
| AUGCAGCAAUAUUACGGGGG | -3.09 ± 0.18 | -1.9 ± 0.16 |
| GCUCAGCAAUAUUACGUGCG | -1.32 ± 0.084 | -0.22 ± 0.1 |
| CGCAAGCAAUAUUACGAUCU | -1.61 ± 0.073 | -0.39 ± 0.085 |
| GUUUAGCAAUAUUACGAGAG | -3.02 ± 0.17 | -2 ± 0.14 |
| UCCAAGCAAUAUUACGACCU | -2.9 ± 0.26 | -1.95 ± 0.26 |
| ACUGAGCAAUAUUACGUAGG | -2.14 ± 0.14 | -1.27 ± 0.18 |
| AGGAAGCAAUAUUACGUCCA | -0.764 ± 0.14 | -0.0963 ± 0.22 |
| GCGCAGCAAUAUUACGCAUA | -0.539 ± 0.1 | -0.285 ± 0.1 |
| ACGGAGCAAUAUUACGGCAG |  | -1.07 ± 0.44 |
| UGCCAGCAAUAUUACGACUA | -0.442 ± 0.1 | -0.0497 ± 0.1 |
| GUCCAGCAAUAUUACGCACG | -2.07 ± 0.21 | -0.825 ± 0.13 |
| UACUAGCAAUAUUACGGCAA | -0.353 ± 0.12 | 0.301 ± 0.12 |
| GAGAAGCAAUAUUACGCCUU | -2.46 ± 0.26 | -0.767 ± 0.27 |
| CAGCAGCAAUAUUACGGGCG | 0.0476 ± 0.064 | 0.363 ± 0.083 |
| UCCGAGCAAUAUUACGCCAG | -3.95 ± 0.28 | -2.24 ± 0.31 |
| UAACAGCAAUAUUACGGCAC | -2.47 ± 0.13 | -1.63 ± 0.14 |
| AAACAGCAAUAUUACGAACC | -2.56 ± 0.18 | -0.124 ± 0.17 |
| UUCCAGCAAUAUUACGUACU |  | -1.82 ± 0.21 |
| AGUCAGCAAUAUUACGCGCG | 0.157 ± 0.12 | -0.374 ± 0.13 |

| Sequence | self-splicing fitness (ln) (30 °C) | self-splicing fitness (ln) (37 °C) |
| --- | --- | --- |
| UCCGAGCAAUAUUACGCACU | -2.93 ± 0.25 | -1.99 ± 0.22 |
| CACUAGCAAUAUUACGACGU | -2.27 ± 0.14 | -1.8 ± 0.11 |
| UGUGAGCAAUAUUACGUGCA | -1.1 ± 0.14 | -0.55 ± 0.16 |
| GCGGAGCAAUAUUACGAGCU | -2.02 ± 0.27 | 0.307 ± 0.24 |
| ACAGAGCAAUAUUACGGAAU | -4.08 ± 0.29 | -1.86 ± 0.31 |
| GGACAGCAAUAUUACGACCU | -0.544 ± 0.077 | -0.13 ± 0.087 |
| AAUGAGCAAUAUUACGCGGC | -2.15 ± 0.19 | -2.11 ± 0.24 |
| GGGGAGCAAUAUUACGCGAU |  | -0.791 ± 0.24 |
| AUACAGCAAUAUUACGGCGG | -1.19 ± 0.095 | -0.617 ± 0.12 |
| CAGAAGCAAUAUUACGGUGC | -4.16 ± 0.24 | -3.04 ± 0.18 |
| GUAGAGCAAUAUUACGGGUC | -2.19 ± 0.12 | -1.37 ± 0.12 |
| CAGUAGCAAUAUUACGCGGU | -2.74 ± 0.12 | -2.94 ± 0.19 |
| CUUUAGCAAUAUUACGACUG | -0.867 ± 0.094 | 0.418 ± 0.15 |
| CGACAGCAAUAUUACGAGUC | -4.97 ± 0.36 | -2.42 ± 0.24 |
| AGGCAGCAAUAUUACGUCCG | -1.16 ± 0.12 | -0.519 ± 0.13 |
| UCUCAGCAAUAUUACGACUG | -2.79 ± 0.17 | -3.11 ± 0.28 |
| AGGUAGCAAUAUUACGGAAG | -3.612 ± 0.031 | -2.5 ± 0.04 |
| UAAGAGCAAUAUUACGCGCU | -3.17 ± 0.28 | -3.35 ± 0.39 |
| GUGUAGCAAUAUUACGAUAG | -3.84 ± 0.27 | -0.946 ± 0.19 |
| CUGCAGCAAUAUUACGCCAC | -2.82 ± 0.26 | -2.82 ± 0.44 |
| GGAAAGCAAUAUUACGUCCC |  | -2.61 ± 0.33 |
| GCGGAGCAAUAUUACGUGCA | -2.52 ± 0.29 | -0.813 ± 0.18 |
| AGGUAGCAAUAUUACGACGG | -2.04 ± 0.02 | -1.31 ± 0.037 |
| CAGCAGCAAUAUUACGGAUG | -2.06 ± 0.097 | -1.48 ± 0.098 |
| AGCCAGCAAUAUUACGUAGU | -2.72 ± 0.12 | -1.83 ± 0.14 |
| UCGAAGCAAUAUUACGGCAU | -3.26 ± 0.2 | -1.62 ± 0.24 |

| Sequence | self-splicing fitness (ln) (30 °C) | self-splicing fitness (ln) (37 °C) |
| --- | --- | --- |
| UUCAAGCAAUAUUACGAUAA | -0.317 ± 0.048 | 0.226 ± 0.059 |
| CGACAGCAAUAUUACGGGGA | -3.22 ± 0.15 | -2.35 ± 0.11 |
| ACCCAGCAAUAUUACGGUAU | -0.563 ± 0.047 | -0.154 ± 0.068 |
| ACUAAGCAAUAUUACGUCCG | -1.69 ± 0.12 | -0.322 ± 0.17 |
| CUACAGCAAUAUUACGCCAU | -3.16 ± 0.12 | -2.45 ± 0.14 |
| AGAUAGCAAUAUUACGCUCA | -0.765 ± 0.087 | -0.082 ± 0.11 |
| AUUGAGCAAUAUUACGGUAA | -3.25 ± 0.22 | -2.53 ± 0.2 |
| CACAAGCAAUAUUACGGGUA | -1.26 ± 0.07 | -0.601 ± 0.076 |
| GCAAAGCAAUAUUACGCUUU | -3.49 ± 0.15 | -3.27 ± 0.22 |
| GUCAAGCAAUAUUACGAUCU | -2.31 ± 0.067 | -1.04 ± 0.068 |
| GAUGAGCAAUAUUACGCUAU | -2 ± 0.38 |  |
| CUCAAGCAAUAUUACGAUCU | -3.53 ± 0.26 | -2.59 ± 0.24 |
| CCGUAGCAAUAUUACGGGUC | -2.96 ± 0.21 | -2.55 ± 0.2 |
| CCGGAGCAAUAUUACGCUAU |  | -2.1 ± 0.2 |
| AAAUAGCAAUAUUACGCUCU | -0.111 ± 0.075 | -0.0401 ± 0.091 |
| CUAGAGCAAUAUUACGCAAU | -3.77 ± 0.22 | -3.08 ± 0.34 |
| AGUUAGCAAUAUUACGAUCU | -0.0546 ± 0.1 | 0.11 ± 0.13 |
| UAUAAGCAAUAUUACGAACA | -0.73 ± 0.15 | -0.241 ± 0.21 |
| GAACAGCAAUAUUACGCUUA | -1.2 ± 0.084 | -0.826 ± 0.099 |
| UUACAGCAAUAUUACGCUUU | -3.28 ± 0.25 | -2.08 ± 0.18 |
| GCACAGCAAUAUUACGGCUA | -0.204 ± 0.081 | -0.393 ± 0.085 |
| UGCAAGCAAUAUUACGCCAC |  | -3.58 ± 0.42 |
| GUCAAGCAAUAUUACGUCGG |  | -1.88 ± 0.18 |
| UACAAGCAAUAUUACGGCCG | -0.0815 ± 0.085 | 0.427 ± 0.13 |
| UGCAAGCAAUAUUACGCCAG | -2.88 ± 0.19 | -1.9 ± 0.26 |
